# Test results taken from article PMC5331220, “Oxidation of F-actin controls the terminal steps of cytokinesis” (Nature Communications, 2017).
# Values joined by “and” are separate entries in the source; they are usually repeats but may differ in a detail not shown here. Equal values may be shown once.
# T1: MICAL1^879-1067 wild-type (human, UniProt Q8TDZ2 879-1067)
# T1 construct: source: E. coli BL21-CodonPlus-RILP or BL21-Gold, purified (HisTrap, rTEV cleavage, Superdex-75); not shown: His6, N-terminal, cleaved
# T1 sequence (looked up): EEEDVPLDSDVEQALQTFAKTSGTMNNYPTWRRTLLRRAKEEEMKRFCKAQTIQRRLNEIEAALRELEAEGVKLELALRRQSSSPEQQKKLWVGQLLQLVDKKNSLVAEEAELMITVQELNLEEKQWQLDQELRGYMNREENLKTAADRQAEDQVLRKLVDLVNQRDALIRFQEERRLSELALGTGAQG
# T2: His-tagged MICAL1^FAD-CH-LIM (MICAL1^1–843) (human, UniProt Q8TDZ2 1-843)
# T2 construct: MICAL1, human, amino acids 1-843 (monooxygenase/FAD, CH and LIM domains); also called 6xHis-MICAL1^FAD-CH-LIM; source: E. coli BL21-AI, purified (Ni-NTA magnetic agarose beads)
# T2 sequence (looked up): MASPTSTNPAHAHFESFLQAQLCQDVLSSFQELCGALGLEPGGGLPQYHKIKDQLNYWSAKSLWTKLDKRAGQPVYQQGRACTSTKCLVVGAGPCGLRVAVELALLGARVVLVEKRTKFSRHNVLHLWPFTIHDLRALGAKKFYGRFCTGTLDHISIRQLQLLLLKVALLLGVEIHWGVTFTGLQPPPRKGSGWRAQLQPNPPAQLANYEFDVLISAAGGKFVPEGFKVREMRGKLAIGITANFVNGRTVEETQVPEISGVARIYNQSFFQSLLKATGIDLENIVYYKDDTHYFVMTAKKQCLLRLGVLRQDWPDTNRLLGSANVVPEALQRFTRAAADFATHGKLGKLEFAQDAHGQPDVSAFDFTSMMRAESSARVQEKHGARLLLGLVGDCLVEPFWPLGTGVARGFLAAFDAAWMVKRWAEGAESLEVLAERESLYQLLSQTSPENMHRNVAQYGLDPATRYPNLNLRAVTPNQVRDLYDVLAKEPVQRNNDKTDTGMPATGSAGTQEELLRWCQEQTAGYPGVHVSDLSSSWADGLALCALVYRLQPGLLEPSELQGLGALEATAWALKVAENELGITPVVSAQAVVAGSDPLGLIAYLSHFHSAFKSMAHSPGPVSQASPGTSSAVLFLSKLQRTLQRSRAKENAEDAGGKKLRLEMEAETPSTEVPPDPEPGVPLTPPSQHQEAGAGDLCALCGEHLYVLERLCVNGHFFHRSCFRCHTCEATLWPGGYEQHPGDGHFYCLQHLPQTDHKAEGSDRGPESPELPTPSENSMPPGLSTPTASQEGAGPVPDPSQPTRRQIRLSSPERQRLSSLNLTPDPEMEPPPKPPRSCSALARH
# B1: MICAL1^918-1067 wild-type (C-terminal domain of human MICAL1) (domain or fragment, UniProt Q8TDZ2 918-1067, looked up)
# chain: KEEEMKRFCKAQTIQRRLNEIEAALRELEAEGVKLELALRRQSSSPEQQKKLWVGQLLQLVDKKNSLVAEEAELMITVQELNLEEKQWQLDQELRGYMNREENLKTAADRQAEDQVLRKLVDLVNQRDALIRFQEERRLSELALGTGAQG
# notes: also called C-term MICAL1; source: E. coli BL21-CodonPlus-RILP or BL21-Gold, purified (HisTrap, rTEV cleavage, Superdex-75); not shown: His6, N-terminal, cleaved
# B2: Rab35^1-175 (domain or fragment)
# chain: not shown
# notes: Rab35 GTPase, human, residues 1-175 (lacks the last 26 aa); Loaded with GppNHp (assay a1) or with GDP (assay a2); also called GppNHp-Rab35 1-175; GDP-Rab35 1-175; source: E. coli BL21-CodonPlus-RILP or BL21-Gold, purified (HisTrap, rTEV cleavage, Superdex-75); not shown: His6, N-terminal, cleaved
# B3: MICAL1^918-1067 S1 mutant (E946K, V950D, E953K, V971E, L975R, V978E) (domain or fragment, human, UniProt Q8TDZ2 918-1067, looked up)
# chain: KEEEMKRFCKAQTIQRRLNEIEAALRELKAEGDKLKLALRRQSSSPEQQKKLWEGQLRQLEDKKNSLVAEEAELMITVQELNLEEKQWQLDQELRGYMNREENLKTAADRQAEDQVLRKLVDLVNQRDALIRFQEERRLSELALGTGAQG
# notes: the supplement and the results print V978E; source: E. coli BL21-CodonPlus-RILP or BL21-Gold, purified (HisTrap, rTEV cleavage, Superdex-75); not shown: His6, N-terminal, cleaved
# B4: Rab35^1-199 (domain or fragment)
# chain: not shown
# notes: Rab35 GTPase, human, residues 1-199; Loaded with GppNHp; also called GppNHp-Rab35 1-199; source: E. coli BL21-CodonPlus-RILP or BL21-Gold, purified (HisTrap, rTEV cleavage, Superdex-75); not shown: His6, N-terminal, cleaved
# Assays:
# Conditions in all cases: both partners purified
# Rab35^1-199 = target: B4; test: ITC; MicroCal ITC-200, 10 °C; C-terminal MICAL1 domain 60 μM in the cell, GppNHp-Rab35 480 μM added in 2 μl aliquots; 50 mM Tris pH 8, 150 mM NaCl, 2 mM MgCl2, 2 mM TCEP, 5% glycerol; one-site model
# Sequence of Rab35^1-199 (Q15286 1-199): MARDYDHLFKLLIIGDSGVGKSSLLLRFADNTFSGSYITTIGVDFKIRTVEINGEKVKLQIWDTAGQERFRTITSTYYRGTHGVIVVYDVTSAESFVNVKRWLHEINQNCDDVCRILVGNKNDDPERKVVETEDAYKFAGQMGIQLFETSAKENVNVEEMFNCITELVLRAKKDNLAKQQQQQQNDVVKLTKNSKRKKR
# Rab35^1-175 = target: B2; test: as above
# Sequence of Rab35^1-175 (Q15286 1-175): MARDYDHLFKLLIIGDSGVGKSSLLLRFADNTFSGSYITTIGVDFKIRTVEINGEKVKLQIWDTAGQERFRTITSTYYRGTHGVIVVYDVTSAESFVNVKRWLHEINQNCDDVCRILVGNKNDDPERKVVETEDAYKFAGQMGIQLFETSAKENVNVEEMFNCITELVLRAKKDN
# [1] = target: B1; test: as above
# [2] = target: B3; test: as above
# [3] = target: T1, MICAL1^879-1067 wild-type; test: as above
# [4] = target: T2, His-tagged MICAL1^FAD-CH-LIM …; test: pull-down; GST-MICAL1^879–1067 on glutathione Sepharose 4B beads, incubated with 6xHis-MICAL1^FAD-CH-LIM alone or with increasing amounts of Rab35-GppNHp in 50 mM Tris pH 8, 150 mM NaCl, 2 mM MgCl2, 1 mM DTT; anti-6xHis and anti-Rab35 blots
binder,measurement,setting,value
B1,Kd,Rab35^1-199,4.5 µM and 5 µM and 4.8 µM
same,Kd,Rab35^1-175,8.3 µM and 4.5 µM
B2,stoichiometry N,[1],1.09
same,stoichiometry N,[2],0.95
same,Kd,[3],13 µM
same,stoichiometry N,[3],0.8
B3,Kd,Rab35^1-175,7.9 µM and 6.4 µM and 7.2 µM
B4,stoichiometry N,[1],1.07
"GST-tagged MICAL1^879–1067 (domain or fragment, human, UniProt Q8TDZ2 879-1067, looked up, source: E. coli BL21-AI, purified (glutathione Sepharose 4B)) EEEDVPLDSDVEQALQTFAKTSGTMNNYPTWRRTLLRRAKEEEMKRFCKAQTIQRRLNEIEAALRELEAEGVKLELALRRQSSSPEQQKKLWVGQLLQLVDKKNSLVAEEAELMITVQELNLEEKQWQLDQELRGYMNREENLKTAADRQAEDQVLRKLVDLVNQRDALIRFQEERRLSELALGTGAQG",binding result,[4],binds
